For data set [1], the target named is T1, wtp53 (full-length wild-type p53) (Homo sapiens, UniProt P04637 1-393). Briefly: EMSA; 50 mM KCl; EMSA: 5 mM Tris pH 7.6, 0.5 mM EDTA, 0.01% Triton X-100, 50 mM KCl, 0.5 mM DTT, on ice 20 min (30 min for plasmids); oligo EMSA with 50 ng BSA and 2.5-20 ng pBSK/EcoRV competitor. The settings on record: protein: recombinant, chain copies: 4, label: 5' 32P.
Data set [2] addresses p53CD (GSTp53CD, central DBD) (Homo sapiens, UniProt P04637 94-312). Described as above. The settings on record: protein: recombinant; tags: GST; chain copies: 4; label: 5' 32P; blunt.
A further data set deals with p53CΔ30 (Homo sapiens, UniProt P04637 1-363). Described as above. To be noted: protein: recombinant; chain copies: 4; label: 5' 32P; blunt.
In data set [3] the target is T1, wtp53 (full-length wild-type p53). Put plainly: EMSA; 50 mM KCl; comparable to P1-22, lower than Pu52; EMSA: 5 mM Tris pH 7.6, 0.5 mM EDTA, 0.01% Triton X-100, 50 mM KCl, 0.5 mM DTT, on ice 20 min (30 min for plasmids); oligo EMSA with 50 ng BSA and 2.5-20 ng pBSK/EcoRV competitor. The settings on record: protein: recombinant; chain copies: 4; label: 5' 32P; parallel G4, 1:2:1 loops, annealed in 50 mM KCl.

The target is the same in data set [4]. Briefly: EMSA; 50 mM KCl; comparable to P1-30, lower than Pu52; EMSA: 5 mM Tris pH 7.6, 0.5 mM EDTA, 0.01% Triton X-100, 50 mM KCl, 0.5 mM DTT, on ice 20 min (30 min for plasmids); oligo EMSA with 50 ng BSA and 2.5-20 ng pBSK/EcoRV competitor. To be noted: protein: recombinant; chain copies: 4; label: 5' 32P; parallel G4, annealed in 50 mM KCl.
Another data set addresses p53CT (GSTp53CT) (Homo sapiens, UniProt P04637 320-393). Briefly: EMSA; 50 mM KCl; EMSA: 5 mM Tris pH 7.6, 0.5 mM EDTA, 0.01% Triton X-100, 50 mM KCl, 0.5 mM DTT, on ice 20 min (30 min for plasmids); oligo EMSA with 50 ng BSA and 2.5-20 ng pBSK/EcoRV competitor. To be noted: protein: recombinant; tags: GST; chain copies: 4; label: 5' 32P; parallel G4, 1:2:1 loops, annealed in 50 mM KCl.

In data set [5] the target is T1, wtp53 (full-length wild-type p53). Briefly: EMSA; 50 mM KCl; comparable to P1-50; EMSA: 5 mM Tris pH 7.6, 0.5 mM EDTA, 0.01% Triton X-100, 50 mM KCl, 0.5 mM DTT, on ice 20 min (30 min for plasmids); oligo EMSA with 50 ng BSA and 2.5-20 ng pBSK/EcoRV competitor. The settings on record: protein: recombinant; chain copies: 4; label: 5' 32P; parallel G4, 1:2:1 loops, annealed in 50 mM KCl.

Chain of p53CD (GSTp53CD, central DBD) (P04637 94-312): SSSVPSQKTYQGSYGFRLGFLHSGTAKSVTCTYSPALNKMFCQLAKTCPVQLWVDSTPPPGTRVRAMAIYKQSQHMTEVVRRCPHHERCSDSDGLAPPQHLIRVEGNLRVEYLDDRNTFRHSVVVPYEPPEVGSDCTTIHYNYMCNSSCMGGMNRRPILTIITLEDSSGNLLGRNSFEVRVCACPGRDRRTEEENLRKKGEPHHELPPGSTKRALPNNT
T1 sequence (P04637 whole entry): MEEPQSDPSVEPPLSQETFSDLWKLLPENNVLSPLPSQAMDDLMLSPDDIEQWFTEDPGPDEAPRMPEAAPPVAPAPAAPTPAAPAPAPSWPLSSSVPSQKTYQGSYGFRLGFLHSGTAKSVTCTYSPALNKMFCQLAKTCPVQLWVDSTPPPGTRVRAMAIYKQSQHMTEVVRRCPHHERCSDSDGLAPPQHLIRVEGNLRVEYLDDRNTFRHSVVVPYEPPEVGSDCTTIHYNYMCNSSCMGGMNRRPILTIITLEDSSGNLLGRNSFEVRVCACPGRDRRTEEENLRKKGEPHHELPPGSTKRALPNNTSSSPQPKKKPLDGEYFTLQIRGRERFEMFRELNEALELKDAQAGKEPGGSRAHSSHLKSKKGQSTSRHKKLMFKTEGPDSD
Chain of p53CT (GSTp53CT) (P04637 320-393): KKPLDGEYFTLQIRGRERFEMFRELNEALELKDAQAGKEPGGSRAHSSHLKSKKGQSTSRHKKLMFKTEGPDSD
Chain of p53CΔ30 (P04637 1-363, stated change not applied): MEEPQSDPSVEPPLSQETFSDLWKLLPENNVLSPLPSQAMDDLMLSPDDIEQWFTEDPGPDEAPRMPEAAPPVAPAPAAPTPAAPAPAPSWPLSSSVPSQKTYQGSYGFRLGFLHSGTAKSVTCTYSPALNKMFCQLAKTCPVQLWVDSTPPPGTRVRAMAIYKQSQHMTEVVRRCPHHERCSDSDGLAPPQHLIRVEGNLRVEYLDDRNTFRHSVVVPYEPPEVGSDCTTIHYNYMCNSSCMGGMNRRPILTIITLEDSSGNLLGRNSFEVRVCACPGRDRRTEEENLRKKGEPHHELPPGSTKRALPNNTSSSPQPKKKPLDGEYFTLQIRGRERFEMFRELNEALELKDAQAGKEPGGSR

B1: P1-40 (dsDNA)
DNA 1: GATCGATAAGAGACATGCCTAGACATGCCTCTTGATATCG
DNA 2: CGATATCAAGAGGCATGTCTAGGCATGTCTCTTATCGATC
As to B1, the binding result (in data set [1] (blunt); in data set [2]; in the data set with p53CΔ30) was “binds” throughout. TGAGGGTGGGGAGGGTGGGGAA (structured_DNA) [Pu22]: in data set [3], the binding result is listed as “binds”. On to AAAAAAAAAAAAAAAAAAAAAAAAAAAAAAAAAAAAAAAAAAAAAAAAAA (ssDNA) [A50], for which the binding result in data set [1] was “no binding”.

In the case of AAAAAAAAAAAAAAAAAAAAAAAAA (ssDNA) [A25], in data set [1], the binding result is recorded as “no binding”. Turning to TGGGGAGGGTGGGGAGGGTGGGGAAGGTGGGGA (structured_DNA) [Pu33], the binding result in data set [4] is given as “binds”.

B2: P1-30 (dsDNA)
DNA 1: GTAAGAGACATGCCTAGACATGCCTCATCG
DNA 2: CGATGAGGCATGTCTAGGCATGTCTCTTAC
For the molecule B2, the binding result in data set [1] (blunt) and in data set [2] was “binds” throughout.

B3: Pu52 (structured_DNA)
DNA: TTGGGGCGCTTATGGGGAGGGTGGGGAGGGTGGGGAAGGTGGGGAGGAGACT
As for B3, the binding result (in the data set with p53CT (GSTp53CT); in data set [5]) was “binds” in each case.

B4: P1-22 (dsDNA)
DNA 1: GAGACATGCCTAGACATGCCTC
DNA 2: GAGGCATGTCTAGGCATGTCTC
For B4, the binding result in data set [1] (blunt) and in data set [2] was “binds” each time.

B5: P1-50 (dsDNA)
DNA 1: GACGGTATCGATAAGAGACATGCCTAGACATGCCTCTTGATATCGAATTC
DNA 2: GAATTCGATATCAAGAGGCATGTCTAGGCATGTCTCTTATCGATACCGTC
As to B5, the binding result in data set [1] (blunt) and in data set [2] was “binds” in each case.

For the origin of these results see PMC5064454, “Wild-type p53 binds to MYC promoter G-quadruplex”.
